We go through 6 molecules from paper PMC11754111 (2025).

Holding throughout (test): ITC
For orientation: ITC needs no label: the signal is the heat of the interaction.

For one assay, the target named is T1, TAF3 PHD finger.
T1 chain: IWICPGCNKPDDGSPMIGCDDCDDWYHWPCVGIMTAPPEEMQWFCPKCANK

The target of a further assay is T2, BPTF PHD finger.
T2 chain: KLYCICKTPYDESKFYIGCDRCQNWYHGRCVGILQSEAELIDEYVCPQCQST

Another assay deals with T3, JARID1A PHD finger.
T3 chain: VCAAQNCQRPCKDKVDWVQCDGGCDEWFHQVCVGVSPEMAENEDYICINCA

For another assay, the target named is T4, JMJDA Tudor domain.
T4 chain: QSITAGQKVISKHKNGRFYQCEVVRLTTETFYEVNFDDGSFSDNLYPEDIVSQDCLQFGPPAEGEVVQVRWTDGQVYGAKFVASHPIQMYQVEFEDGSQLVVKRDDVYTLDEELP

The Kd is the constant that tells how readily two partners part at equilibrium. Read a high Kd as a looser complex.

Where no end group is shown, it is not given here.

B1: H3Q5ser histone H3 tail peptide (ITC) (peptide)
chain: ARTKQTARKSTGGKA
modifications: serotonylated glutamine at 5; C-terminal amide (general statement of the peptide synthesis)
Molecule B1 had a Kd with TAF3 PHD finger of 3.79 µM.

The molecule ARTKQTARKSTGGKA-NH2 [unmodified histone H3 N-terminal tail peptide (ITC)] returned a dissociation constant Kd in the assay with TAF3 PHD finger of 21.5 µM.

Turning to ARTK(Me3)QTARKSTGGKA-NH2 [H3K4me3 histone H3 tail peptide (ITC)], the Kd with BPTF PHD finger is 1810 nM; with JARID1A PHD finger, 1680 nM.

B2: H3K4me3Q5his histone H3 tail peptide (ITC) (peptide)
chain: ARTKQTARKSTGGKA
modifications: trimethyl-lysine at 4; histaminylated glutamine at 5; C-terminal amide (general statement of the peptide synthesis)
Consider B2, for which the dissociation constant Kd is 1940 nM with BPTF PHD finger, 2300 nM with JMJDA Tudor domain and 1850 nM with JARID1A PHD finger.

B3: H3Q5his histone H3 tail peptide (ITC and crystal) (peptide)
chain: ARTKQTARKSTGGKA
modifications: histaminylated glutamine at 5; C-terminal amide (general statement of the peptide synthesis)
Turning to B3, binding with TAF3 PHD finger was characterised by a dissociation constant (Kd) of 7.94 µM.

B4: H3K4me3Q5ser histone H3 tail peptide (ITC) (peptide)
chain: ARTKQTARKSTGGKA
modifications: trimethyl-lysine at 4; serotonylated glutamine at 5; C-terminal amide (general statement of the peptide synthesis)
For the molecule B4, the Kd with BPTF PHD finger amounted to 2720 nM; with JMJDA Tudor domain, 3610 nM; with JARID1A PHD finger, 2900 nM.
